Test results from publication doi:10.1101/2020.08.27.268672 (bioRxiv, 2020).

Columns and labels:
[1] = biological target: the molecule itself; assay: SEC-MALS
[2] = biological target: Rel^NTD (purified, in solution) (Bacillus subtilis 168, UniProt O54408 1-391); assay: ITC
Chain of Rel^NTD (purified, in solution) (O54408 1-391): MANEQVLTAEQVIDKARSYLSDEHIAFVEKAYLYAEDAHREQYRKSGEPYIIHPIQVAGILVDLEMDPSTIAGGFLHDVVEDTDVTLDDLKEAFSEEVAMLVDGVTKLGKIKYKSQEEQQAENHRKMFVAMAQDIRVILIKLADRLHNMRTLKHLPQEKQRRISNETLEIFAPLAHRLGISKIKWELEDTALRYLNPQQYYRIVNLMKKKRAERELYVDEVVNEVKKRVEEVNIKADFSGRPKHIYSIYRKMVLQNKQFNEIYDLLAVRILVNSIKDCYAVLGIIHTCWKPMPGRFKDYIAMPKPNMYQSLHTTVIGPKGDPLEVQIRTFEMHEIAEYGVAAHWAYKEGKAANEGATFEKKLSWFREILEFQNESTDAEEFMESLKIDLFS

Kd [2]: 650 nM | stoichiometry N [2]: 1
B1: DarB (natural protein, Bacillus subtilis 168)
chain: ISLQSDQLLEATVGQFMIEADKVAHVQVGNNLEHALLVLTKTGYTAIPVLDPSYRLHGLIGTNMIMNSIFGLERIEFEKLDQITVEEVMLTDIPRLHINDPIMKGFGMVINNGFVCVENDEQVFEGIFTRRVVLKELNKHIRSLNK
stoichiometry N [1]: 2
